# Assay results as given in the nanobody polyreactivity screen of Harvey et al. (2022).
# Test: yeast display, Sf9 membrane polyspecificity reagent, FACS + sequencing; frameworks hold sequencing errors
# Outline: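 Using colony PCR, genes from sorted yeast display clones were amplified, then sequenced on MiSeq at 2 × 250 and filtered by CDR length. The clones had been stained with 10% biotinylated, detergent-solubilized Sf9 membrane reagent for 1 hour at 4 °C and sorted by FACS into low and high (top ~1%) gates on anti-HA and streptavidin fluorescence. Polyreactivity labels come from the gate of origin.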
row,Sequence,polyreactivity (PSR sort gate)
1,QVQLVESGGGLVQAGGSLRLSCAASGRTFHGYGMGWYRQAPGKERELVAAISWSGGSTYYADSVKGRFTISRDNAKNTVYLHMNSLKAEDTAVYYCAADVYRYWISEYDDYWGQGTQVTVSS,low polyreactivity
2,QVQLVESGGGLVQAGGSLRLSCAASGRTFHHNTMGWYRQAPGKERELVAAISSGGSTNYADSVKGRFTISRDNAKNTVYLQMNSLKPEDTAVYYCNADGGFLQRTGYDYWGQGTQVTVSS,low polyreactivity
3,QVQLVESGGGLVQAGGSLRLSCAASGRTFHIYAMGWYRQAPGKERELLAAINYSGGSTYYADSVKGRFTISRDNAKNSVYLQMNSLKPEDTAVLYCAAVVYNVPWWFEYDYWGQGTQVTVSS,low polyreactivity
4,QVQLVESGGGLVQAGGSLRLSCAASGRTFHPYAMGWYRQAPGKERELVAAITISTNYADSVKGRFTISRDNAKNTVYLQMNSLKPEDTAVYYCNKDGTHEVYVGGYEDDYWGQGTQVTVSS,low polyreactivity
5,QVQLVESGGGLVQAGGSLRLSCAASGRTFHRYVMGWYRQAPGKERELVAAITSGGRTTYADSVKGRFTISRDNAKNTVYLQMNSLKPEDTAVYYCAAELTVRGTWVQQRTFRYDYWGQGTQVTVSS,low polyreactivity
6,QVQLVESGGGLVQAGGSLRLSCAASGRTFHSYAMGWYRQAPGKERELVAAINNGGGTYYADSVKGRFTISRDNAKNTVYLQMNSLKPEDTAVYYCAADRYRYRYNAPRYAYDYWGQGTQVTVSS,high polyreactivity
7,QVQLVESGGGLVQAGGSLRLSCAASGRTFHYYAMGWYRQAPGKERELVAAISSTGGSTYYADSVKGRFTISRDNAKHPVYVQMNSLKPADTAVYSCAARQFGYYHVRNEYWGQGTQVTVSS,high polyreactivity
8,QVQLVESGGGLVQAGGSLRLSCAASGRTFHYYAMGWYRQAPGKERELVASITYNGGDTYYADSVKGRFTISRDNAKNTVYLQMNSLKPEDTAVYYCAAEYYGHRYDYWGQGTQVTVSS,low polyreactivity
9,QVQLVESGGGLVQAGGSLRLSCAASGRTFIEYAMGWYRQAPGKERELVAAISRNDGGSTYYADSVKGRFTISRDNAKNTVYLQMNSLKPEDTAVYYCAARRYISAHVRYGSWGQGTQVTVSS,high polyreactivity
10,QVQLVESGGGLVQAGGSLRLSCAASGRTFIFNAMGWYRQAPGKERELVAAISSGGGTNYADSVKGRFTISRDNAKNTVYLQMNSLKPEVTAVYYCAADPRDHYSYVYDGYKYDYWGQGTQVTVSS,low polyreactivity
11,QVQLVESGGGLVQAGGSLRLSCAASGRTFIGYAMGWYRHAPGKERELVATISVSGGSTYYADSVKGRFTISRDNAKNTVYLQMKSLKPEDTAVYYCDKAYLRYYDGPYDYWGQGTQVTVSS,low polyreactivity
12,QVQLVESGGGLVQAGGSLRLSCAASGRTFIGYAMGWYRQAPGKERELVAASSSGGNTYYADSVKGRFTISRDNAKNTVYLQMNSLKPEDTAVYYCAAKGYRRVARYFIGDYWGQGTQVTVSS,low polyreactivity
13,QVQLVESGGGLVQAGGSLRLSCAASGRTFIGYAMGWYRQAPGKERELVATISVSGGSTYYADSVKGRFTISRDNAKNTVYLQMNSLKPEVTAVYYCAKAYLRYYDGPYDYWGHGTQVTVSS,low polyreactivity
14,QVQLVESGGGLVQAGGSLRLSCAASGRTFIINTMGWYRQAHGKERELVAAISKNGATTNYADSVKGRFTISRDNAKNTVYFQMNSLKPEDTAVYYCNARYSGYLRLDYWGQGTQVTVSS,low polyreactivity
15,QVQLVESGGGLVQAGGSLRLSCAASGRTFIKNAMGWYRQAPGKERELVAAINWSGTRTYYADSVKGRFTISRDNAKNTVYLQMNSLKPEDTAVYYCAKVIARYVRYDYWGQGTQVTVSS,high polyreactivity
16,QVQLVESGGGLVQAGGSLRLSCAASGRTFILYAMGWYRQAPGKERELVAAITRRGGRTYYADSVKGRFTISRDNAKNTVYLQMNSLKPEDTAVYYCAADQYYYTQPSDMDYWGQGTQVTVSS,high polyreactivity
